Key:
Test in all cases: ELISA; polyreactivity assay, second experiment (Fig. 3D): antigen coated at constant concentration (proteins 5 ug/ml, bicarbonate buffer pH 9.6); mAb, Fab or scFv serially diluted two-fold from 34 nM Fv; 1 h at 37 C; alkaline phosphatase-conjugated secondary antibody; 'saturating Ag conditions'
Conditions in all cases: both partners purified
[1] = target: actin (Bos taurus (muscle actin, assumed from …, UniProt P68138))
[2] = target: T1, tubulin (Sus scrofa (brain tubulin, assumed from …, UniProt P02550;P02554))
T1 construct: tubulin alpha chain; Cytoskeleton T240-A; tubulin beta chain; As I recall, this catalogue item is tubulin purified from porcine brain (a mix of isotypes); source: bought: Cytoskeleton, Inc (T240-A)
T1 sequence (P02554 whole entry, looked up, chain 1 of 2): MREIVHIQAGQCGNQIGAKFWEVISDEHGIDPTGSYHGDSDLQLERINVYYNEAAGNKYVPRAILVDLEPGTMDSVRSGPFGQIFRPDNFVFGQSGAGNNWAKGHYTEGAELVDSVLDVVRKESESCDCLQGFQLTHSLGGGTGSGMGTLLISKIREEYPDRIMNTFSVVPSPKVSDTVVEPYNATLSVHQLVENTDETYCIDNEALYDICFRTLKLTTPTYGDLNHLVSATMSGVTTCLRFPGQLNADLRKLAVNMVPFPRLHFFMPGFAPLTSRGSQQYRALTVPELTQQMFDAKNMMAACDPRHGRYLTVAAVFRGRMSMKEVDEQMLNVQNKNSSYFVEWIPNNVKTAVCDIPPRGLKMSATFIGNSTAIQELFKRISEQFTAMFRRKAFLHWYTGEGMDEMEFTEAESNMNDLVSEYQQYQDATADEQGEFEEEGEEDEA
T1 sequence (P02550 whole entry, looked up, chain 2 of 2): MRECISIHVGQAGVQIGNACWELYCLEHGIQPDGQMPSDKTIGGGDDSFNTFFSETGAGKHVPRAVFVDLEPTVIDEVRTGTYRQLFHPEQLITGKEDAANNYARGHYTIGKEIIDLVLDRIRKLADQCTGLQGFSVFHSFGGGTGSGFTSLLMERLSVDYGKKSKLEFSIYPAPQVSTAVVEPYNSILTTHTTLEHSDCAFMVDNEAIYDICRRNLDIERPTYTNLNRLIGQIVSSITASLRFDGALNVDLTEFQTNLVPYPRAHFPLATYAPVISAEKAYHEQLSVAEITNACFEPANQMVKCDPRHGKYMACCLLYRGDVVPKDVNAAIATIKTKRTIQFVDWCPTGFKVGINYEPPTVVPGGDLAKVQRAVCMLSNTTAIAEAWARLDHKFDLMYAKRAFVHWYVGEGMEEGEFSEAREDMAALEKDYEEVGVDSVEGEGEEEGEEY

[3] = target: T2, thyroglobulin (Bos taurus (assumed from catalogue item …, UniProt P01267))
T2 construct: thyroglobulin, Sigma T1001; As I recall, this catalogue item is thyroglobulin from bovine thyroid; source: bought: Sigma (T1001)
T2 sequence (P01267 20-2769): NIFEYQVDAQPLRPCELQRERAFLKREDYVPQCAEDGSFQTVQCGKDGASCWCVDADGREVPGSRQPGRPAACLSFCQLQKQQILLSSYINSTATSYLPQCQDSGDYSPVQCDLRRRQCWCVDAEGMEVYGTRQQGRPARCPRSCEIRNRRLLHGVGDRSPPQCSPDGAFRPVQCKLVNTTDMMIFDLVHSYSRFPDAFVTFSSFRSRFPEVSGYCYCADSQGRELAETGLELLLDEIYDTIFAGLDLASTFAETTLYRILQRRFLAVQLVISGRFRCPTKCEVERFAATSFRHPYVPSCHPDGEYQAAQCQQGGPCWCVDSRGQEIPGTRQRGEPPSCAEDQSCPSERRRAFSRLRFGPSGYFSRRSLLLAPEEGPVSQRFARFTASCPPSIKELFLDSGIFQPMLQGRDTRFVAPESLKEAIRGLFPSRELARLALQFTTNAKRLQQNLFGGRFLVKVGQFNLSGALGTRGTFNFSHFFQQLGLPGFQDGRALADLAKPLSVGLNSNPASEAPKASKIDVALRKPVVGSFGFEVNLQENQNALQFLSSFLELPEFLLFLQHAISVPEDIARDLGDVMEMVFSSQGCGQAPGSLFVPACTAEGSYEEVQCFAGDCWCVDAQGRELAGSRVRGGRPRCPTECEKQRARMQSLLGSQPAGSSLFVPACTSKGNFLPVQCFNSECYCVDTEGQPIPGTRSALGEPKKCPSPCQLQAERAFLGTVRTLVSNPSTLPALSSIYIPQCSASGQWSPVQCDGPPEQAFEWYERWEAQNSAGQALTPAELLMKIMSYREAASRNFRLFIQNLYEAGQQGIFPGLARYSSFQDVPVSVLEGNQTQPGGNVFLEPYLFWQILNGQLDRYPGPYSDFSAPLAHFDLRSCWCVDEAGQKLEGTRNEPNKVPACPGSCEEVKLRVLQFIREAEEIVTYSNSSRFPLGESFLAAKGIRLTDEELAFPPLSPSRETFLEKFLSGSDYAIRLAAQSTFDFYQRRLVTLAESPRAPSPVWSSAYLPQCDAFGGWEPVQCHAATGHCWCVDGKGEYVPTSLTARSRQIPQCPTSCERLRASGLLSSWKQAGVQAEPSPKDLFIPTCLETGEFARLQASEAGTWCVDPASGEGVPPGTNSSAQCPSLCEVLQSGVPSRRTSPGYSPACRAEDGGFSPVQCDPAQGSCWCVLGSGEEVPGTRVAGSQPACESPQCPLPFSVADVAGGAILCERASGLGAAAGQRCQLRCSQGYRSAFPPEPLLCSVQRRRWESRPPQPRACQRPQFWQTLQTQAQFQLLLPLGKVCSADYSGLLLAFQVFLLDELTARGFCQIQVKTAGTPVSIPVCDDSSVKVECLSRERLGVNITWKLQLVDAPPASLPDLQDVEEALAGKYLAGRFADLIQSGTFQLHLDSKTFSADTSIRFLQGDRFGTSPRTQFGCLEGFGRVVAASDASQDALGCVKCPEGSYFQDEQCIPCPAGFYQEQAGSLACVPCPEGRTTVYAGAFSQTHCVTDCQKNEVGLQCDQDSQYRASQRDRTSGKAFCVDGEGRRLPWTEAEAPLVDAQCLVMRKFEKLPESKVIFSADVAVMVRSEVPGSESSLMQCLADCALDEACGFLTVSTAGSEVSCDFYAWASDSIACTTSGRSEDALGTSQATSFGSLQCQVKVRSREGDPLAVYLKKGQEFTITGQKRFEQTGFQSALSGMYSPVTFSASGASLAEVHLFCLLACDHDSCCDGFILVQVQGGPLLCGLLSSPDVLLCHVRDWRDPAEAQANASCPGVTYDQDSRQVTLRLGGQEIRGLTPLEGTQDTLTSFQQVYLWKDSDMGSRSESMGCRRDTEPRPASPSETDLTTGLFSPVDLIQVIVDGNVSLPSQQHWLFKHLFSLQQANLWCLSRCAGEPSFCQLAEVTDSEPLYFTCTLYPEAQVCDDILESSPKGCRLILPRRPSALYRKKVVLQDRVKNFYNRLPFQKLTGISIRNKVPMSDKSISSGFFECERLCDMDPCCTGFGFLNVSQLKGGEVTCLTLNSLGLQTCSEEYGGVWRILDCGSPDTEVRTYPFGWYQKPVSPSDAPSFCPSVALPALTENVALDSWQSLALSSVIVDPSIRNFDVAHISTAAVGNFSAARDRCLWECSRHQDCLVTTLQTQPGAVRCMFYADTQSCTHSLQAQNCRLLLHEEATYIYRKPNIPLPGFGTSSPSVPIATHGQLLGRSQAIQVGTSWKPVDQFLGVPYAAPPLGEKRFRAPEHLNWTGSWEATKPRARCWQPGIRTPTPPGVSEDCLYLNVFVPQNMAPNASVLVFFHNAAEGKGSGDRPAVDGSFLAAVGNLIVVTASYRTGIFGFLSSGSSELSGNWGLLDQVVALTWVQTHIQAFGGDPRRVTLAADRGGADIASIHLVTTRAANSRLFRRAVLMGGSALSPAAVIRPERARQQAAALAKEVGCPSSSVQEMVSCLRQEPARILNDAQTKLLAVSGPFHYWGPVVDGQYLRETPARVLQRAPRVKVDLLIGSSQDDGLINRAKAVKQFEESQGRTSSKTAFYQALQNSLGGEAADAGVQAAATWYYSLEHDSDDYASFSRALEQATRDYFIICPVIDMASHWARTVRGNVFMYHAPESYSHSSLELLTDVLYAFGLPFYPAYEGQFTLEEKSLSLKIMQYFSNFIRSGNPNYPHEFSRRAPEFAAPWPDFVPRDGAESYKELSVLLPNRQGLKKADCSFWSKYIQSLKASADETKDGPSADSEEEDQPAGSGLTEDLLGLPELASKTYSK

Measured: binding result

B1: single-chain Fv antibody fragment 18B7 (scFv, V domains shown)
VH: DVKLVESGGGLVKLGGSLKLSCVASGFTCSSYFMSWVRQTPEKRLELVAMINNNGDKTYYPDTVKGRFTISRDNAKNTLYLQMSSLKSEDTAMYYCARRDGTFGNHFDYWGQGTTLTVSS
VL: DVVMTQTPLSLPVSAGDQASISCRSSQSLCHSNGNTYLHWYLQKPGQSPKLLIYKVSNRFSGVPDKFSGSGSGTDFTLKISRVEAEDLGVYFCSQSTHVPWTFGGGTKLEIK
notes: VL of mAb 18B7; 15-residue linker, printed as (GGS)5 in the methods; the results call it (Gly4Ser)3; VH of mAb 18B7; A pelB leader was appended to the N-terminus; The tandem FLAG and His6 tags are at the C-terminus; also called scFv 18B7; scFv; source: E. coli BL21 STAR (pET22b+); also soluble in the periplasm; not shown: His6, C-terminal, kept
binds: [1] | [2] | [3]

— publication PMC11215335 (The Journal of Biological Chemistry, 2024)
